Biological target: T1, Kog1-FLAG (Saccharomyces cerevisiae, UniProt P38873 1-1557)
T1 construct: Bait of the TORC1 immunopurifications; also called TORC1 subunit Kog1/Raptor with FLAG tag; TORC1 (as purified through Kog1-FLAG); not shown: FLAG tag
Test: co-immunopurification after DSP crosslinking, Western blot; long term amino acid and glucose starvation

T1 sequence (P38873 whole entry): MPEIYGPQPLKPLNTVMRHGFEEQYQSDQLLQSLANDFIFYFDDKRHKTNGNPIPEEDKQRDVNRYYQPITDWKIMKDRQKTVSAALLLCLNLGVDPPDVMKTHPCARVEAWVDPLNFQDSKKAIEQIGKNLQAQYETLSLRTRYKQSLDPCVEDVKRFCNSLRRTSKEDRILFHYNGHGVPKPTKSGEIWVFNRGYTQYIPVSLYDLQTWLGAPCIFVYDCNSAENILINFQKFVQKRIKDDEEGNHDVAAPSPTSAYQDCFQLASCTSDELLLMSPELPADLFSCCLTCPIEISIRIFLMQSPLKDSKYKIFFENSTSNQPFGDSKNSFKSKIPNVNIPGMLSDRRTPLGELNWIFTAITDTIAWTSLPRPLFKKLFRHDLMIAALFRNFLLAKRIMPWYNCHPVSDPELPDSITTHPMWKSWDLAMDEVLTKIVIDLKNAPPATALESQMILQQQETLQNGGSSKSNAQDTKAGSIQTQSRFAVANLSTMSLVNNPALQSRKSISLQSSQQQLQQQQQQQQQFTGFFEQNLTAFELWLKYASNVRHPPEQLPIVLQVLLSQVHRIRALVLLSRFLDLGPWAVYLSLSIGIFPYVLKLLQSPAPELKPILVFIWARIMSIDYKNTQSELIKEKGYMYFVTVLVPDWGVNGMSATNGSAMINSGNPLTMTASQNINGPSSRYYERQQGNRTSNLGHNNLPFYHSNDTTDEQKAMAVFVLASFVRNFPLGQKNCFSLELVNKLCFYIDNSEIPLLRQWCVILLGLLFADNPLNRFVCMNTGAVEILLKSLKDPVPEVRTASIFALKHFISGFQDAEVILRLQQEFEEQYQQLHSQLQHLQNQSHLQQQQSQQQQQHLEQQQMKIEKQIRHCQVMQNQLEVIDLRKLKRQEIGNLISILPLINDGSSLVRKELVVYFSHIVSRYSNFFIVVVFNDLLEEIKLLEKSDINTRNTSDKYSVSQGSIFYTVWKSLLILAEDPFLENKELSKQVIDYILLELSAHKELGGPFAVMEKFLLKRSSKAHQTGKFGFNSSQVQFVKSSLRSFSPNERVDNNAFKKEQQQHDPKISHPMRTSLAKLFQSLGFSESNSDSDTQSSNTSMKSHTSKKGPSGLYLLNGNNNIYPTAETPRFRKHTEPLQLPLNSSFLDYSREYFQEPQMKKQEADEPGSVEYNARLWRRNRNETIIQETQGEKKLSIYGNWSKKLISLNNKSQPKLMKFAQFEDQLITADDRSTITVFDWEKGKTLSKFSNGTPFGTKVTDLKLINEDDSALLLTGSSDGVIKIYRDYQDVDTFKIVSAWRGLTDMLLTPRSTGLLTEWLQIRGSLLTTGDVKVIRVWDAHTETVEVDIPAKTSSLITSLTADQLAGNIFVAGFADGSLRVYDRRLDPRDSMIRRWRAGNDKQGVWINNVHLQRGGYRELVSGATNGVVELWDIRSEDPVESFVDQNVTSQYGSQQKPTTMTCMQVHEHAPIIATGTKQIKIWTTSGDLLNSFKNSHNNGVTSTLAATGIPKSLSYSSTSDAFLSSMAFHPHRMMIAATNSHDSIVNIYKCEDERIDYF

B1: GFP-Ait1 (other)
chain: MVRLNHAASYFMPIFCSTRPHIVILSALFSISLFSLFYASSELLLHQYDDPLMFKPNSQDYFRTFLLGLFSPFLYYFLKTFLFNINQRFLILNLIVDFPINDVFMLLILIGLAYPQVQDHEGGTIKHKECSWHIIPRQAYIFGISWALGEFTICIIGNLFNYQEIADPNINSGFTHQESANTYCNNNDMSHNDDCGCSTEYRPNVVDRSDITLSKCIEVRNDSSSISNNVYSSEYHPIKPLRSSSSTYGSIRQQPHENKKQLHVPDNSQDDTIIMMNPIDNSLKLTTLDTGDLSFPIDEEQPILKKSFGYTWAVPNENTQNTTKSFTPIKRFIAFSTAYQLVTGLLLMILVVGSNIMLTIGESLILSMYFVYVRGHEGLFTPVVNYFGSRTISNFILCVIIPFISLNFLINTSIYLRRELDDWFNNSQGEFEDDDENTISKRVATNQEYQHPLSANYISMDSPDVINSSPGHFGMNSGQLLGNTTLYYGSLNGDDDDMTNDSALLRFCKKLVKNWRALARNDSFVLGVMVSWSLLVFVTGILSTVYI
notes: Expressed in S. cerevisiae (W303) and immunopurified from DSP-crosslinked, digitonin-treated lysate; also called Ait1-GFP; GFP-tagged Ydl180w; not shown: GFP tag
- co-purified amount relative to log phase growth: 50%

Reference: patent publication US20250262271A1 (ARIZONA BOARD OF REGENTS ON BEHALF OF THE UNIVERSITY OF …, published 2025)
